Article PMC8053096 (Nucleic Acids Research, 2021)

B1: full-length Escherichia coli Lhr (enzyme, Escherichia coli K-12 MG1655)
chain: SEFELRRQACMADNPDPSSLLPDVFSPATRDWFLRAFKQPTAVQPQTWHVAARSEHALVIAPTGSGKTLAAFLYALDRLFREGGEDTREAHKRKTSRILYISPIKALGTDVQRNLQIPLKGIADERRRRGETEVNLRVGIRTGDTPAQERSKLTRNPPDILITTPESLYLMLTSRARETLRGVETVIIDEVHAVAGSKRGAHLALSLERLDALLHTSAQRIGLSATVRSASDVAAFLGGDRPVTVVNPPAMRHPQIRIVVPVANMDDVSSVASGTGEDSHAGREGSIWPYIETGILDEVLRHRSTIVFTNSRGLAEKLTARLNELYAARLQRSPSIAVDAAHFESTSGATSNRVQSSDVFIARSHHGSVSKEQRAITEQALKSGELRCVVATSSLELGIDMGAVDLVIQVATPLSVASGLQRIGRAGHQVGGVSKGLFFPRTRRDLVDSAVIVECMFAGRLENLTPPHNPLDVLAQQTVAAAAMDALQVDEWYSRVRRAAPWKDLPRRVFDATLDMLSGRYPSGDFSAFRPKLVWNRETGILTARPGAQLLAVTSGGTIPDRGMYSVLLPEGEEKAGSRRVGELDEEMVYESRVNDIITLGATSWRIQQITRDQVIVTPAPGRSARLPFWRGEGNGRPAELGEMIGDFLHLLADGAFFSGTIPPWLAEENTIANIQGLIEEQRNATGIVPGSRHLVLERCRDEIGDWRIILHSPYGRRVHEPWAVAIAGRIHALWGADASVVASDDGIVARIPDTDGKLPDAAIFLFEPEKLLQIVREAVGSSALFAARFRECAARALLMPGRTPGHRTPLWQQRLRASQLLEIAQGYPDFPVILETLRECLQDVYDLPALERLMRRLNGGEIQISDVTTTTPSPFATSLLFGYVAEFMYQSDAPLAERRASVLSLDSELLRNLLGQVDPGELLDPQVIRQVEEELQRLAPGRRAKGEEGLFDLLRELGPMTVEDLAQRHTGSSEEVASYLENLLAVKRIFPAMISGQERLACMDDAARLRDALGVRLPESLPEIYLHRVSYPLRDLFLRYLRAHALVTAEQLAHEFSLGIAIVEEQLQQLREQGLVMNLQQDIWVSDEVFRRLRLRSLQAAREATRPVAATTYARLLLERQGVLPATDGSPALFASTSPGVYEGVDGVMRVIEQLAGVGLPASLWESQILPARVRDYSSEMLDELLATGAVIWSGQKKLGEDDGLVALHLQEYAAESFTPAEADQANRSALQQAIVAVLADGGAWFAQQISQRIRDKIGESVDLSALQEALWALVWQGVITSDIWAPLRALTRSSSNARTSTRRSHRARRGRPVYAQPVSPRVSYNTPNLAGRWSLLQVEPLNDTERMLALAENMLDRYGIISRQAVIAENIPGGFPSMQTLCRSMEDSGRIMRGRFVEGLGGAQFAERLTIDRLRDLATQATQTRHYTPVALSANDPANVWGNLLPWPAHPATLVPTRRAGALVVVSGGKLLLYLAQGGKKMLVWQEKEELLAPEVFHALTTALRREPRLRFTLTEVNDLPVRQTPMFTLLREAGFSSSPQGLDWG
B2: MsmLhr C-terminal domain, MsmLhr-(863-1507) (domain or fragment, Mycobacterium smegmatis, UniProt A0QT91 863-1507, looked up)
chain: SPLAERRAAALALDTVLLSELLGRVELRELLDPAVVASTSAQLQHLTPERAARDAEGVADLLRLLGPLTEADIAQRCTADNIGAWLDGLHAAKRALPVTYAGQTWWAAVEDIGLLRDGIGVPVPVGVPAAFTESASDPLGDLIGRYARTRGPFTTEQTAARFGLGVRVASDVLSRMAVDGRLIRGEFAADLSGEQWCDAQVLKILRRRSLAALRAQVEPVSTDAYARFLPSWQHVGSTNTTGIDGLATVIEQLAGVPIPASAVESLVFPQRVRDYQPAMLDELLASGEVMWSGAGQIGNGDGWVAFHLADTAPLTLTHGAEIEFTDTHRVILETLGHGGAYFFRQLTDGTVEGTAGQELKQALWELIWAGWVTGDTFAPVRAVLSGPRRSGAPAHRQRQRPPRLSRYSVAHAQTRGTDPTVSGRWSALPAAEPDSTVRAHFQAELLLGRHGVLTKGAVGAEGVPGGFATLYKVLSTFEDAGRCQRGYFVESLGGAQFAVASTVDRLRSYLDNVDPERPEYHAVVLAATDPANPYGAALGWPTDSEAHRPGRKAGALVALVDGRLVWFLERGGRSLLSFGADADAQRAAAGALTDLVSAGRIPSLLVERINGVAVLDPDVDAERAVVQDALLGAGLSRTPRGLRLR

Biological target: the molecule itself
Experiment: SEC

Row | Protein | binding result
1 | B1 | binds
2 | B2 | binds
